# Test results taken from the supplement of paper PMC10065799, “High-throughput profiling of sequence recognition by tyrosine kinases and SH2 domains using bacterial peptide display” (eLife, 2023).
# Key:
# [1] = target: c-Src SH2; experiment: SH2 binding enrichment of the phosphorylated peptide, bacterial display (enrichment ratio); higher = better substrate or ligand; peptides without Tyr show the background
# [2] = target: Grb2 SH2 (UniProt P62993); experiment: as above
# [3] = target: SHP2-C SH2; experiment: as above
# [4] = target: Jak2 (UniProt O60674); experiment: phosphorylation enrichment, bacterial display (enrichment ratio); higher = better substrate or ligand; peptides without Tyr show the background
# Sequence of Jak2 (O60674 whole entry, looked up): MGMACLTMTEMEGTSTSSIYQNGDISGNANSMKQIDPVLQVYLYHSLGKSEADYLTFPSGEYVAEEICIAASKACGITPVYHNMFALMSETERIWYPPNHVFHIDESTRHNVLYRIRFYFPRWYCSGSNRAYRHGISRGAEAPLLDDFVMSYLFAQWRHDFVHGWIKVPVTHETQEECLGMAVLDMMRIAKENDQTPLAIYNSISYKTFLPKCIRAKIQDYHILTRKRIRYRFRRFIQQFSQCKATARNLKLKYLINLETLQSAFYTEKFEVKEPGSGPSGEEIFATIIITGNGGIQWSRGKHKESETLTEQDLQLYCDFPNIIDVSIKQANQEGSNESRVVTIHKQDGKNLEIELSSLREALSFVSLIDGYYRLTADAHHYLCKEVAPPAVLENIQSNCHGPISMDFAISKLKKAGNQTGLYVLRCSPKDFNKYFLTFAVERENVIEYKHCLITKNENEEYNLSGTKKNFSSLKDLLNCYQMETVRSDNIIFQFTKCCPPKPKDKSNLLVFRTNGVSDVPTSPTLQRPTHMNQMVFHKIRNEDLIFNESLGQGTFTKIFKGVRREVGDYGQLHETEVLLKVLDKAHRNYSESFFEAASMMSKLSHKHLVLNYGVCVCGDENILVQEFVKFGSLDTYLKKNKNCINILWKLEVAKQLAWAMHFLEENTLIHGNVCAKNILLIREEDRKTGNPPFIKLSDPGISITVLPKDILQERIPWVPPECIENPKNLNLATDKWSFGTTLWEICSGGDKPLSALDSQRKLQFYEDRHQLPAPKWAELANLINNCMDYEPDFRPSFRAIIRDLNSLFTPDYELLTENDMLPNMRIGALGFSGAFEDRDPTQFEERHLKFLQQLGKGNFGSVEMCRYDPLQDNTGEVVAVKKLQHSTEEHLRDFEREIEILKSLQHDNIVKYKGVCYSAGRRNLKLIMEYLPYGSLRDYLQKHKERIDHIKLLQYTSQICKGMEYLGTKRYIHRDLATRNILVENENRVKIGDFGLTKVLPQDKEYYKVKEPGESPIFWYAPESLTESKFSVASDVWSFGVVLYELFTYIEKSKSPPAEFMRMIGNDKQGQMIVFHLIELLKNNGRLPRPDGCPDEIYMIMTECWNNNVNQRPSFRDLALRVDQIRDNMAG
# [5] = target: FGFR3 (UniProt P22607); experiment: as above
# Sequence of FGFR3 (P22607 whole entry, looked up): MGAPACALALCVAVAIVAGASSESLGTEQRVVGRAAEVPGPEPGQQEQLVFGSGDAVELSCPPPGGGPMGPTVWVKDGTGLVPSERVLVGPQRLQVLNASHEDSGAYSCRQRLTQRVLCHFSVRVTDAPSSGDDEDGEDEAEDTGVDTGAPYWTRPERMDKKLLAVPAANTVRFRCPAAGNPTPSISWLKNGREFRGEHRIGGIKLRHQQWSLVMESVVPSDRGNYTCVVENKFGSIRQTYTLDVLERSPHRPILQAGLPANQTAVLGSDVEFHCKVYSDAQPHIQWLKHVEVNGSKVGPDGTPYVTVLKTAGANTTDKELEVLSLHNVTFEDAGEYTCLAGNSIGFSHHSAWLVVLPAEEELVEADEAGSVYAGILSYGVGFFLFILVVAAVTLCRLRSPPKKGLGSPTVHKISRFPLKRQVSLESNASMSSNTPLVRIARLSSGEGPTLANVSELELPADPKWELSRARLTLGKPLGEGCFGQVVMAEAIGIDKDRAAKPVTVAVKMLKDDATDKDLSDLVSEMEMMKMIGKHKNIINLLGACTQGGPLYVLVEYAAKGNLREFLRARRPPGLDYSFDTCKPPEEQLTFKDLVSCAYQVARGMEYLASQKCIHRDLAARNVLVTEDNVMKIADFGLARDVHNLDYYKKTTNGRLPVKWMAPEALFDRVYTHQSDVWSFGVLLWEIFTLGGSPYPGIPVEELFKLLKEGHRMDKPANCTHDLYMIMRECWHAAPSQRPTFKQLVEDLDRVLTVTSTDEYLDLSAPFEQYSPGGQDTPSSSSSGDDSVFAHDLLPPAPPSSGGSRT
# [6] = target: EPHB1 (UniProt P54762); experiment: as above
# Sequence of EPHB1 (P54762 whole entry, looked up): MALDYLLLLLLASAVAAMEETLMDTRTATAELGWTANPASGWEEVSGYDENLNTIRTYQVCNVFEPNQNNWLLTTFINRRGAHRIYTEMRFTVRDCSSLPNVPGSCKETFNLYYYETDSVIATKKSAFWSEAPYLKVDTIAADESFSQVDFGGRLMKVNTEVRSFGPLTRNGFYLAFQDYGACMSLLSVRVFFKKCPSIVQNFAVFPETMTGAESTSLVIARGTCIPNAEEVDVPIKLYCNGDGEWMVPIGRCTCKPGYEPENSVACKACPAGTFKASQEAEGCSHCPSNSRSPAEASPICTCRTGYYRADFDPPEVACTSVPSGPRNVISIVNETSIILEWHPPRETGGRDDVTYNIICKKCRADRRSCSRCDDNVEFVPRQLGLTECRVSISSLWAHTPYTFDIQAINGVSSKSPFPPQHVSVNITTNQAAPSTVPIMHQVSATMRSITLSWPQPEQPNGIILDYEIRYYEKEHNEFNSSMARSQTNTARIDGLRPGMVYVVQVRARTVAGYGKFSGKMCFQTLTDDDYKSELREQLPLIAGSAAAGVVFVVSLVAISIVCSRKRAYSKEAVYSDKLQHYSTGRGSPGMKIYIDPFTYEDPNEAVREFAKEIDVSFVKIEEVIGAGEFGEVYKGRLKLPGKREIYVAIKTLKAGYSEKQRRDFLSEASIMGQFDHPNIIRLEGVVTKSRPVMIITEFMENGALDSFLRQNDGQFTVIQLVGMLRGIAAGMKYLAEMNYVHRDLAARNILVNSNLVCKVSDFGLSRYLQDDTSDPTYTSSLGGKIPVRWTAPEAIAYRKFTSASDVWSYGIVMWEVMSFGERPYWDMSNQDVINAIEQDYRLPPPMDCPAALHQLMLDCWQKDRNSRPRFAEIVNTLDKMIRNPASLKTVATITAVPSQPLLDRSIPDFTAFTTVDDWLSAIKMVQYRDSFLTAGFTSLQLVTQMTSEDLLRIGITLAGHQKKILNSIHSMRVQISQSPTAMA
# [7] = target: MERTK (UniProt Q12866); experiment: as above
# [8] = target: EPHB2 (UniProt P29323); experiment: as above
# [9] = tested on: c-Abl (mouse); experiment: as above
# [10] = target: Fyn (UniProt P06241); experiment: as above
# [11] = tested on: c-Src; experiment: as above
# [12] = tested on: AncSZ; experiment: as above
# [13] = tested on: Fer (mouse); experiment: as above
# [14] = target: Hck (UniProt P08631); experiment: as above
# [15] = target: FGFR1 (UniProt P11362); experiment: as above
# Sequence of FGFR1 (P11362 whole entry, looked up): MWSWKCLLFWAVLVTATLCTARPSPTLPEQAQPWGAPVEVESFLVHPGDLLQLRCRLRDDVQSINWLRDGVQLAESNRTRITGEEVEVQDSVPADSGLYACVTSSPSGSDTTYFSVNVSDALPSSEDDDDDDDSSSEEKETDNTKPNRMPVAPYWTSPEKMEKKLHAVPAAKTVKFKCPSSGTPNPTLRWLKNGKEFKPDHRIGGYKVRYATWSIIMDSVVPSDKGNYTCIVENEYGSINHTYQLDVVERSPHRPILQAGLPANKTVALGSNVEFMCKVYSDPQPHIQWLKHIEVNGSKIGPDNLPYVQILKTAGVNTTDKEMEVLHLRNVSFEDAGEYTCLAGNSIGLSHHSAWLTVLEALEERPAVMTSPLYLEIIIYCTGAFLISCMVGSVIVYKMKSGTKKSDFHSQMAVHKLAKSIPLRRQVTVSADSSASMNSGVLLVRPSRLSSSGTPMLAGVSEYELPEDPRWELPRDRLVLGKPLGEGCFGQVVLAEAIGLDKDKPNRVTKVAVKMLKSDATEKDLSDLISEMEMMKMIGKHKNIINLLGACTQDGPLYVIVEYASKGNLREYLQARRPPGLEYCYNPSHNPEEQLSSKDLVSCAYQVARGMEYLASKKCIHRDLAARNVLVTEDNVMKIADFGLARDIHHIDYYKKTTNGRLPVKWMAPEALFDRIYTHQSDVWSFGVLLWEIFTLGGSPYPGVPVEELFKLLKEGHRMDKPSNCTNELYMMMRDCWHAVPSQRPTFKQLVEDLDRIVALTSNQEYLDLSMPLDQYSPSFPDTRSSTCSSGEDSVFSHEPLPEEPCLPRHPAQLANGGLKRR
# [16] = target: Fes (UniProt P07332); experiment: as above
# Sequence of Fes (P07332 whole entry, looked up, the tested form may be a part): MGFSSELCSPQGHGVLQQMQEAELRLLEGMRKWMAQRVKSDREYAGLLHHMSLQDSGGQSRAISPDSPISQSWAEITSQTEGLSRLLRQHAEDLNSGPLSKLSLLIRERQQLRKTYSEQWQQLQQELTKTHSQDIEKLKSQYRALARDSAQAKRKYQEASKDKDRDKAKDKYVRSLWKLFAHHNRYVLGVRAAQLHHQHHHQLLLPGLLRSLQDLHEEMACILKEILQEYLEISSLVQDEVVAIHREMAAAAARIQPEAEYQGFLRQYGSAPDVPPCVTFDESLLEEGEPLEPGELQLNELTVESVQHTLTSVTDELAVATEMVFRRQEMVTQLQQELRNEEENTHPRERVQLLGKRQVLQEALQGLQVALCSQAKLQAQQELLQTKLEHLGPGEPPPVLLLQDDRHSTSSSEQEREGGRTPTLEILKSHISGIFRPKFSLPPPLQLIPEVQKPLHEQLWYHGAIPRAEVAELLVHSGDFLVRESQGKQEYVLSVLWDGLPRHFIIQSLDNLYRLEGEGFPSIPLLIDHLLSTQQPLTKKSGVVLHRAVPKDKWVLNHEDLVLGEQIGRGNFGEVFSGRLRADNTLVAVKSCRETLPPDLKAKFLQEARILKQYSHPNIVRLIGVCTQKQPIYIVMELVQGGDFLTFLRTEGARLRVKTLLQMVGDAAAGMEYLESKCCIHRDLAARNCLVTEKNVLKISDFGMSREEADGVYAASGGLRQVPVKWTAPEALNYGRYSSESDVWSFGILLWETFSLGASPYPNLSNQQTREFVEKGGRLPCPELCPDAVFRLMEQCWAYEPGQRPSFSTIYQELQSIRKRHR
# 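For SH2 binding enrichment of the phosphorylated peptide, bacterial display in this document: peptide library displayed on the E. coli surface as eCPX fusions, selected cells deep-sequenced, score is each peptide's frequency after selection divided by its frequency in the input.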
# 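For phosphorylation enrichment, bacterial display in this document: 11-residue human phosphosite peptides and single-mutation variants displayed on the E. coli surface, counted by deep sequencing, each peptide's frequency after selection divided by its frequency in the unselected input library; frequency after pTyr selection over input frequency; kinase dosed for 20-30% of maximal phosphorylation in three min.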
# Sequence of Grb2 SH2 (P62993 whole entry, looked up): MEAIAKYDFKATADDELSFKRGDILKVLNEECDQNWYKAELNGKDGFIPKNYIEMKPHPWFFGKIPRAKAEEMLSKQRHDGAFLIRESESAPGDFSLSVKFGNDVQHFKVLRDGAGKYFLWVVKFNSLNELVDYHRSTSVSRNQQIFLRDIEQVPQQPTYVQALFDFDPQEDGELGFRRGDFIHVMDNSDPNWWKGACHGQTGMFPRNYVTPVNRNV
Sequence,SH2 binding enrichment [1],SH2 binding enrichment [2],SH2 binding enrichment [3],phosphorylation enrichment [4],phosphorylation enrichment [5],phosphorylation enrichment [6],phosphorylation enrichment [7],phosphorylation enrichment [8],phosphorylation enrichment [9],phosphorylation enrichment [10],phosphorylation enrichment [11],phosphorylation enrichment [12],phosphorylation enrichment [13],phosphorylation enrichment [14],phosphorylation enrichment [15],phosphorylation enrichment [16]
MSFDRYMAICH [OR2A5_Y123_YF],0.859,0.829,0.688,0.878,0.68,0.868,0.498,0.669,0.69,0.494,0.497,0.897,0.557,0.527,0.567,1.08
IFLENYNAGTY [CFI_Y421_H418L],0.668,0.937,0.777,0.786,0.897,0.656,0.403,0.443,0.665,0.415,0.687,0.846,0.558,0.543,0.481,1.04
EAMSDYKKQLR [SPATA18_Y229],0.438,0.852,1.05,0.563,0.605,0.418,0.393,0.413,0.442,0.316,0.452,0.594,0.405,0.383,0.378,0.651
AVLVQYFMEHH [PTPN11_Y80_E76V_YF],1.19,1.37,1.51,1.07,0.813,0.638,0.429,0.613,0.638,0.503,0.421,0.934,0.484,0.448,0.466,1.15
DYYDLYGGQKF [PTPN11_Y66_E69Q],0.666,0.86,0.865,5.14,13.5,8.34,5.66,8.29,0.814,7.93,6.47,2.69,2.32,8.28,15.9,1.02
FMIISYVLIIR [OR1D2_Y218_V214M],1.38,2.38,1.52,0.383,0.559,0.225,0.446,0.483,0.625,0.426,0.437,0.936,0.491,0.553,0.651,0.631
QGLRLYRAHLA [BTK_Y617_P619A],1.21,1.38,1.61,0.878,0.677,0.587,0.582,0.602,0.854,0.576,0.523,1.43,0.467,0.497,0.521,0.978
CFCSWYRGWAP [TIMP3_Y195_G190C_YF],1.09,1.17,1.24,1.25,1.03,0.859,0.556,0.707,0.933,0.647,4.5,1.28,4.11,0.887,1.07,1.44
RLVVVYPWTQR [HBB_Y36_L33V],0.954,1.45,1.5,1.2,1.1,0.575,0.727,1.23,0.846,0.771,0.709,1.07,0.652,0.646,0.491,1.17
